Measured values published in publication PMC3166965.

B1: hSLIV 6 bp stem (structured_RNA)
RNA: GGACCUAUUGCAGUACCUGGUCC
B2: hSLIV 9 bp stem (structured_RNA)
RNA: GGGCCCGGUAUUGCAGUACCUCCGGGUCC
B3: hSLII (structured_RNA)
RNA: GGGCUGCCAUUGCACCUCGGCGGUCC
B4: dSLIV (structured_RNA)
RNA: GGGCCCGGUAUUGCAGUACCGCCGGGUCC
B5: hSLIV 2AP9 (structured_RNA)
RNA: GGCCGUAUUGCAGUACCUCGGCC
modifications: 2-aminopurine at position 15 (loop A9), written as A
B6: dSLIV 2AP9 (structured_RNA)
RNA: GGCCGUAUUGCAGUACCGCGGCC
modifications: 2-aminopurine at position 15 (loop A9), written as A

target: T1, U2B" (Homo sapiens, UniProt P08579 1-225); test: filter binding
T1 sequence (P08579 whole entry): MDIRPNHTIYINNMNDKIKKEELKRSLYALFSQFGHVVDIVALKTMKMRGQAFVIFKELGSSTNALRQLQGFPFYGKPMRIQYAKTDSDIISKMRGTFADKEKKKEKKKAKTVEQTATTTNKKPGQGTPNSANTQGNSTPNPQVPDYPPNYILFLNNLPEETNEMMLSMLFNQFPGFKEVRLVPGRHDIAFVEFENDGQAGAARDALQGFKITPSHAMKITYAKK

Row | Binder | Kd
1 | B1 | 2 nM
2 | B2 | 1 nM
3 | B3 | 2.1 nM
4 | B4 | 2 nM
5 | B5 | 2 nM

target: T1, U2B"; test: filter binding; remark: another data set of the same source

Row | Binder | binding result
6 | B6 | binds
